The numbers were not newly measured in publication PMC7060279, which cites them from elsewhere.

One data set concerns the target TLR4 (Homo sapiens) (UniProt O00206).
The target of another data set is TLR4/MD2 (Homo sapiens) (UniProt O00206).
Sequence of TLR4/MD2 (Homo sapiens) (O00206 24-839, chain 1 of 2): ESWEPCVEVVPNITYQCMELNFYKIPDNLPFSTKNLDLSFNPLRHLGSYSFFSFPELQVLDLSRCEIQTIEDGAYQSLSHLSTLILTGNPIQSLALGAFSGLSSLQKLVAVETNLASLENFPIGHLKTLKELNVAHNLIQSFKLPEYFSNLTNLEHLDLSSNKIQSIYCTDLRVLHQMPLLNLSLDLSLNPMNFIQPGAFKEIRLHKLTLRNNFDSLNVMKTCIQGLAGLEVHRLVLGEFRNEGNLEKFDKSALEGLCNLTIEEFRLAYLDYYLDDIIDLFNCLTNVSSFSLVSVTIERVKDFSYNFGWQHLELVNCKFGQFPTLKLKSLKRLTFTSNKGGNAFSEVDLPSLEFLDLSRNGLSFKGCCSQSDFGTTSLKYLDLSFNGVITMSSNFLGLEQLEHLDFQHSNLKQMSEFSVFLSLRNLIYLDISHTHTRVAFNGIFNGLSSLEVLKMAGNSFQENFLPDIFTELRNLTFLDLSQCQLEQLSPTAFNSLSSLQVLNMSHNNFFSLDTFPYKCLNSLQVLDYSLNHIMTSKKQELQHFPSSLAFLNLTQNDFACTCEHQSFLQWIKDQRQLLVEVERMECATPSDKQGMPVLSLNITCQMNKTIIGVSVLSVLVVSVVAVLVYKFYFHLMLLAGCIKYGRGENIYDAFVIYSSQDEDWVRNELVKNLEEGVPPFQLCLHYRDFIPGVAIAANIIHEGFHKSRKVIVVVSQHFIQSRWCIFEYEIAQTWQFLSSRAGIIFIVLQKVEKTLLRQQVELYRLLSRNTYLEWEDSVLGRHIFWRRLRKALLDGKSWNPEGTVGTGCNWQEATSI
Sequence of TLR4/MD2 (Homo sapiens) (Q9Y6Y9 19-160, chain 2 of 2, further chain): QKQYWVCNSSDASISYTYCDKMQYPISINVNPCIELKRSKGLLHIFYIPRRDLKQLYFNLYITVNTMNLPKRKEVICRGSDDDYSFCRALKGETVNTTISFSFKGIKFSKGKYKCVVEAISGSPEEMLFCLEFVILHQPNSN

Sequence of HMGB1 (P09429 whole entry): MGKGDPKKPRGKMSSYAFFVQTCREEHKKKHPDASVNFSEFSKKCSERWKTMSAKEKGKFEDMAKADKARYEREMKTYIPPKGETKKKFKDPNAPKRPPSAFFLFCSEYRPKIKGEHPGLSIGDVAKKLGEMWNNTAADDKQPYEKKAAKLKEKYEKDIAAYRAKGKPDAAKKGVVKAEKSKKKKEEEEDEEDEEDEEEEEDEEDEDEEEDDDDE
Sequence of TLR4 (Homo sapiens) (O00206 24-839): as the sequence (O00206 24-839, chain 1 of 2) above

Regarding HMGB1 (from UniProt P09429), the results for the Kd with TLR4 (Homo sapiens) and with TLR4/MD2 (Homo sapiens) were 650 nM and 420 nM, respectively.
